Experimental data from the RNAGym collection of RNA variant scans (doi:10.7554/elife.80360).

B1: HDV Ribozyme (parent)
chain: GGCCGGCAUGGUCCCAGCCUCCUCGCUGGCGCCGGCUGGGCAACAUUCCGAGGGGACCGUCCCCUCGGUAAUGGCGAAUGGGACCCA

Variants of: B1
Assay: self-cleavage, relative activity (ratio to wild type); higher = more cleavage; co-transcriptional

Variant	self-cleavage
GGCCGGCAUGGUCCCAGCCUCCUCGCUGGCGCCGGCUGGGCAACAUACCGAGGGGACCGUCCCCUCGUUAAUGGCGAAUGGGACCCA [U47A G68U]	0.944
GGCCGGCAUGGUCCCAGCCUCCUCGCUGGCGCCGGCUGGGCAACAUACCGAGGGGACCGUCCCCUCGGUAAUGCCGAAUGGGACCCA [U47A G74C]	0.104
GGCCGGCAUGGUCCCAGCCUCCUCGCUGGCGCCGGCUGGGCAACAUACCGAGGGGACCGUCCCCUCGGUAAUGGCAAAUGGGACCCA [U47A G76A]	0.901
GGCCGGCAUGGUCCCAGCCUCCUCGCUGGCGCCGGCUGGGCAACAUACCGAGGGGACCGUCCCCUCGGUAAUGGCUAAUGGGACCCA [U47A G76U]	0.742
GGCCGGCAUGGUCCCAGCCUCCUCGCUGGCGCCGGCUGGGCAACAUACCGAGGGGACCGUCCCCUCGGUAAUGGCGAAUGCGACCCA [U47A G81C]	0.161
GGCCGGCAUGGUCCCAGCCUCCUCGCUGGCGCCGGCUGGGCAACAUACCGAGGGGACCGUCCCCUCGGUAAUGGCGAAUGUGACCCA [U47A G81U]	0.219
GGCCGGCAUGGUCCCAGCCUCCUCGCUGGCGCCGGCUGGGCAACAUACCGAGGGGACCGACCCCUCGGUAAUGGCGAAUGGGACCCA [U47A U60A]	0.851
GGCCGGCAUGGUCCCAGCCUCCUCGCUGGCGCCGGCUGGGCAACAUACCGAGGGGACCGUCCCCACGGUAAUGGCGAAUGGGACCCA [U47A U65A]	1.07
GGCCGGCAUGGUCCCAGCCUCCUCGCUGGCGCCGGCUGGGCAACAUACCGAGGGGACCGUCCCCGCGGUAAUGGCGAAUGGGACCCA [U47A U65G]	0.931
GGCCGGCAUGGUCCCAGCCUCCUCGCUGGCGCCGGCUGGGCAACAUACCGAGGGGACCGUCCCCUCGGUAACGGCGAAUGGGACCCA [U47A U72C]	0.688
GGCCGGCAUGGUCCCAGCCUCCUCGCUGGCGCCGGCUGGGCAACAUCCCGAGGGGGCCGUCCCCUCGGUAAUGGCGAAUGGGACCCA [U47C A56G]	0.665
GGCCGGCAUGGUCCCAGCCUCCUCGCUGGCGCCGGCUGGGCAACAUCCCGAGGGGACCGUCCCCUCGGUAAUGGCGCAUGGGACCCA [U47C A77C]	0.317
GGCCGGCAUGGUCCCAGCCUCCUCGCUGGCGCCGGCUGGGCAACAUCCCGAGGGGACCGUCCCCUCGGUAAUGGCGAAUGGGCCCCA [U47C A83C]	0.554
GGCCGGCAUGGUCCCAGCCUCCUCGCUGGCGCCGGCUGGGCAACAUCCCGAGGGGACCGUCCCCUCGGUAAUGGCGAAUGGGUCCCA [U47C A83U]	0.378
GGCCGGCAUGGUCCCAGCCUCCUCGCUGGCGCCGGCUGGGCAACAUCGCGAGGGGACCGUCCCCUCGGUAAUGGCGAAUGGGACCCA [U47C C48G]	0.804
GGCCGGCAUGGUCCCAGCCUCCUCGCUGGCGCCGGCUGGGCAACAUCCAGAGGGGACCGUCCCCUCGGUAAUGGCGAAUGGGACCCA [U47C C49A]	0.95

Variant	self-cleavage
GGCCGGCAUGGUCCCAGCCUCCUCGCUGGCGCCGGCUGGGCAACAUCCCGAGGGGAACGUCCCCUCGGUAAUGGCGAAUGGGACCCA [U47C C57A]	0.875
GGCCGGCAUGGUCCCAGCCUCCUCGCUGGCGCCGGCUGGGCAACAUCCCGAGGGGAGCGUCCCCUCGGUAAUGGCGAAUGGGACCCA [U47C C57G]	0.677
GGCCGGCAUGGUCCCAGCCUCCUCGCUGGCGCCGGCUGGGCAACAUCCCGAGGGGACCGUUCCCUCGGUAAUGGCGAAUGGGACCCA [U47C C61U]	0.872
GGCCGGCAUGGUCCCAGCCUCCUCGCUGGCGCCGGCUGGGCAACAUCCCGAGGGGACCGUCCACUCGGUAAUGGCGAAUGGGACCCA [U47C C63A]	0.739
GGCCGGCAUGGUCCCAGCCUCCUCGCUGGCGCCGGCUGGGCAACAUCCCGAGGGGACCGUCCCCUGGGUAAUGGCGAAUGGGACCCA [U47C C66G]	1.17
GGCCGGCAUGGUCCCAGCCUCCUCGCUGGCGCCGGCUGGGCAACAUCCCGAGGGGACCGUCCCCUCGGUAAUGGCGAAUGGGAACCA [U47C C84A]	0.554
GGCCGGCAUGGUCCCAGCCUCCUCGCUGGCGCCGGCUGGGCAACAUCCCGAGGGGACCGUCCCCUCGGUAAUGGCGAAUGGGACCUA [U47C C86U]	0.712
GGCCGGCAUGGUCCCAGCCUCCUCGCUGGCGCCGGCUGGGCAACAUCCCCAGGGGACCGUCCCCUCGGUAAUGGCGAAUGGGACCCA [U47C G50C]	0.831
GGCCGGCAUGGUCCCAGCCUCCUCGCUGGCGCCGGCUGGGCAACAUCCCUAGGGGACCGUCCCCUCGGUAAUGGCGAAUGGGACCCA [U47C G50U]	0.733
GGCCGGCAUGGUCCCAGCCUCCUCGCUGGCGCCGGCUGGGCAACAUCCCGAUGGGACCGUCCCCUCGGUAAUGGCGAAUGGGACCCA [U47C G52U]	0.698
GGCCGGCAUGGUCCCAGCCUCCUCGCUGGCGCCGGCUGGGCAACAUCCCGAGUGGACCGUCCCCUCGGUAAUGGCGAAUGGGACCCA [U47C G53U]	0.966
GGCCGGCAUGGUCCCAGCCUCCUCGCUGGCGCCGGCUGGGCAACAUCCCGAGGUGACCGUCCCCUCGGUAAUGGCGAAUGGGACCCA [U47C G54U]	1.14
GGCCGGCAUGGUCCCAGCCUCCUCGCUGGCGCCGGCUGGGCAACAUCCCGAGGGUACCGUCCCCUCGGUAAUGGCGAAUGGGACCCA [U47C G55U]	0.831
GGCCGGCAUGGUCCCAGCCUCCUCGCUGGCGCCGGCUGGGCAACAUCCCGAGGGGACCCUCCCCUCGGUAAUGGCGAAUGGGACCCA [U47C G59C]	1.09
GGCCGGCAUGGUCCCAGCCUCCUCGCUGGCGCCGGCUGGGCAACAUCCCGAGGGGACCUUCCCCUCGGUAAUGGCGAAUGGGACCCA [U47C G59U]	0.95
GGCCGGCAUGGUCCCAGCCUCCUCGCUGGCGCCGGCUGGGCAACAUCCCGAGGGGACCGUCCCCUCAGUAAUGGCGAAUGGGACCCA [U47C G67A]	0.923
